In data set [1] the test system is Mouse small intestinal organoids. Kind of data set: Organoid culture and proliferation assay. It is filed as cell-based. The note with it: organoids treated with Porcupine inhibitor IWP2. The procedure: Mouse small intestinal organoids were maintained in mouse IntestiCult™ Organoid Growth Medium ([…] technologies) and passaged once a week until the date of assay for Wnt mimetic activity (H. Chen, Lu, Lee, & Li, 2020). To assay for organoid proliferation, organoids were dissociated with Gentle Cell Dissociation Reagent ([…] technologies) for 10 min with shaking, washed 2× in cold PBS (Gibco) and resuspended 1:1 in Matrigel (Corning) on ice. 25 ul of cell resuspension in Matrigel was seeded to the center of each well on a prewarmed 48-well tissue culture plate and let solidify for 5 min at 37 degrees. 300 ul of Basal Media (Table 10), Basal Media+IWP2+anti-βGal or Basal Media+IWP2+Wnt mimetic was applied to the wells. Each condition included 5-6 repeats. Media and treatments were changed once on Day 4 after plating. Images of the 3D cultured organoids were acquired on Day 7.
Mouse small intestinal organoids were treated with the Porcupine inhibitor IWP2 to inhibit endogenous Wnt ligand secretion in the cultured organoid. When these organoids were subject to no protein treatment or were treated with a control anti-β-gal IgG, the organoids were not maintained and quickly degenerated.

In data set [2] the test system is colon tissue markers (ZO-1, Ki67, Axin2, Cdkn3, S100A9, CD45). Kind of data set: RNA in situ hybridization and immunohistochemistry/immunofluorescence of colon tissue, DSS model. Type of data set: in vivo, mouse. The conditions noted are these: day 10 of the DSS model. From the text:
Expression of mRNA was detected by RNAscope in situ hybridization (ACD Bio). RNAscope probes used are listed below. For colorimetric visualization, standard RNAscope® 2.5 HD Assay-Red protocol (www.acdbio.com) was followed, and images were acquired on a Leica DMi8 microscope equipped with a DFC7000T color camera. For fluorescent RNAscope in situ hybridization, standard RNAscope Multiplex Fluorescent Reagent Kit v2 Assay protocol was followed (ACD Bio Document #323100-USM) and coupled with the TSA Plus Cyanine 3 and 5 Systems. Fluorescent images were acquired with a Leica Thunder imaging system.
In brief, five-micron thick formalin fixed paraffin embedded tissue sections on slides were deparaffinized followed by citrate buffer (pH 6) antigen retrieval in a steamer. Slides were then washed thoroughly in tap water followed by 1× wash in PBST. Subsequently, tissue sections were blocked with serum free protein block (Agilent, X090930-2) for one hour at room temperature followed by incubation in primary antibodies. After primary antibody incubation, tissue sections were washed in 0.1% TX-100 in PBS (PBST) at least three times followed by incubation in secondary antibody. Afterwards, tissue sections were washed with PBST, and coverslips were mounted with Vectashield Vibrance antifade mounting medium with DAPI (Vector Laboratories, H-1800).

The subject of data set [3] is DSS induced acute colitis in C57BL6/J mice. The experiment in a line: DSS induced acute colitis model. It is filed as in vivo, mouse. The note with it: two doses day 4 and day 7, evaluated day 10. The protocol:
7- to 8-week-old female C57BL6/J mice were fed with 4% (wt/vol) Dextran Sulfate Sodium (DSS, MP Biomedicals, molecular weight 36-50 kDa, Ref #160110) in drinking water from day 1 to day 7 to induce colitis and were switched to 1% DSS from day 8. […] Animals were terminated on day 10, allowing a 6-day course of protein treatment, and the colon was harvested for histology and RT-qPCR. […] The disease activity index (DAI) was calculated based on the average score of weight loss, stool consistency and the degree of intestinal bleeding (Wirtz Stefan et al., 2017). Scoring system by grading was on a scale of 0 to 4 using the following parameters: loss of weight (0, 0-1%; 1, 1-6%; 2, 6-12%; 3, 12-18%; 4, >18%), stool consistency (0, normal; 1, soft but still formed; 2, soft; 3, very soft, wet; 4, watery diarrhea) and intestine bleeding (0-1, negative hemoccult; 2, positive hemoccult; 3, blood traces in stool visible; 4, gross rectal bleeding).
Small intestine and colon were extracted and, after removing fecal content, weighted and length measured. The desired small intestine segments (duodenum, jejunum, ileum) and colon segments (ascending, transverse and descending colon) were cut out and fixed directly in 10% neutral buffered formalin (NBF) overnight. Tissues were then transferred to 70% ethanol before paraffin embedding. Paraffin tissue blocks were then sectioned to […] thickness and stained with hematoxylin and eosin (H&E) for histology analysis. Pathology reading was performed by an independent pathologist.
[…] Groups of mice were either untreated, treated with an isotype control antibody (anti-GFP), or treated with the indicated engineered Wnt agonist once on day 4 or twice on day 4 and 7. […]
The 123 mice total were grouped: (Day3=13, day4=13, day5=26, day6=24, day7=26, day10=21), with 91 used for histology endpoints, and 21 for scRNA-seq (group eliminated because of machinery). Daily food intake, BW, fecal score, and occult blood were measured. […]

The values below come from patent US20240150473A1, “MODULATION OF WNT SIGNALING IN GASTROINTESTINAL DISORDERS” (Surrozen Operating, Inc., priority 2021, published 2024).

B1: R2M3-26: Fzd1,2,5,7,8 pan specific Wnt mimetic targeting FZD1,2,5,7,8 and LRP6 (protein)
light: DVQLVESGGGLVQAGGSLRLACAGSGRIFAIYDIAWYRHPPGNQRELVAMIRPVVTEIDYADSVKGRFTISRNNAMKTVYLQMNNLKPEDTAVYYCNAKRPWGSRDEYWGQGTQVTVSSGSGSGQAVVLQEPSLSVSPGGTVTLTCGLSSGSVSTNYYPSWYQQTPGQAPRTLIYYTNTRSSDVPERFSGSIVGNKAALTITGAQPDDESVYFCLLYLGRGIWVFGGGTKLTVLGQPKAAPSVTLFPPSSEELQANKATLVCLISDFYPGAVTVAWKADSSPVKAGVETTTPSKQSNNKYAASSYLSLTPEQWKSHRSYSCQVTHEGSTVEKTVAPTECS
heavy: EVQLVQSGAEVKKPGASVKVSCKASGYTFTSYGISWVRQAPGQGLEWMGWISAYNGNTNYAQKLQGRVTMTTDTSTSTAYMELRSLRSDDTAVYYCASSKEKATYYYGMDVWGQGTTVTVSSASTKGPSVFPLAPSSKSTSGGTAALGCLVKDYFPEPVTVSWNSGALTSGVHTFPAVLQSSGLYSLSSVVTVPSSSLGTQTYICNVNHKPSNTKVDKKVEPKSCDKTHTCPPCPAPEAAGGPSVFLFPPKPKDTLMISRTPEVTCVVVDVSHEDPEVKFNWYVDGVEVHNAKTKPREEQYNSTYRVVSVLTVLHQDWLNGKEYKCKVSNKALGAPIEKTISKAKGQPREPQVYTLPPSREEMTKNQVSLTCLVKGFYPSDIAVEWESNGQPENNYKTTPPVLDSDGSFFLYSKLTVDKSRWQQGNVFSCSVMHEALHNHYTQKSLSLSPGK
With B1, the “organoid proliferation and growth” value in data set [1] is on record as “able to stimulate cell proliferation”. The “Ki67 expression in duodenum and colon” value in data set [2] was “did not lead to an expansion of Ki67”. Besides, the “histology (colitis) score” value in data set [3] (reduced from 4.75, see WO 2020/185960A1) stood at 2.0. In addition, the “crypt architecture and tissue inflammation” value in data set [3] (versus PBS or anti-GFP) is on record as “restored crypt architecture with less tissue inflammation”.
